Laboratory results: US20230357384A1 (NEXTCURE, published 2023)

Tests used:
[1] = biological target: T1, FLRT3 (antigen of the binning assay of Table 2) (Homo sapiens (Human), UniProt Q9NZU0 29-528, limits assumed); experiment: antibody binning matrix (Table 2); competitor: 1H5
T1 construct: the whole entry for FLRT3 is named
T1 sequence: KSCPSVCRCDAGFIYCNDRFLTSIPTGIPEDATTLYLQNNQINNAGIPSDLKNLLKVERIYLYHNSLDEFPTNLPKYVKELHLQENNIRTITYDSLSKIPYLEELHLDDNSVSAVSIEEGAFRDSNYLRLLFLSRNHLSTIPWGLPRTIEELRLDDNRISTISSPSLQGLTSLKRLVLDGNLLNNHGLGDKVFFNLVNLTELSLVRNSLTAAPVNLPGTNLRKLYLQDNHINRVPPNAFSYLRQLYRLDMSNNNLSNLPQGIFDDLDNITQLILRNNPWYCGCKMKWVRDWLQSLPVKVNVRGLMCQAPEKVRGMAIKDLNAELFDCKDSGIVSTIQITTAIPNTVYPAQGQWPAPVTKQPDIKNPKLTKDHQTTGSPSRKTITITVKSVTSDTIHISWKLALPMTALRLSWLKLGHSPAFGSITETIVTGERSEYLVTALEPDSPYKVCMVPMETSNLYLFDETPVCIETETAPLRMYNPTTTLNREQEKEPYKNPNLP

[2] = biological target: T1, FLRT3 (antigen of the binning assay of …); experiment: antibody binning matrix (Table 2); competitor: 2F7
[3] = biological target: T1, FLRT3 (antigen of the binning assay of …); experiment: antibody binning matrix (Table 2); competitor: 5C2
[4] = biological target: T1, FLRT3 (antigen of the binning assay of …); experiment: antibody binning matrix (Table 2); competitor: 14B7
[5] = biological target: T1, FLRT3 (antigen of the binning assay of …); experiment: antibody binning matrix (Table 2); competitor: 14D3
[6] = biological target: T2, FLRT3-His monomeric fusion protein (Homo sapiens (Human), UniProt Q9NZU0 29-528); experiment: kinetic affinity measurement with FLRT3-His monomer (Table 1)
T2 construct: also called FLRT3 monomer; not shown: His tag
T2 sequence: T1 sequence

[7] = biological target: T1, FLRT3 (antigen of the binning assay of …); experiment: antibody binning matrix (Table 2); competitor: 15G11
human FLRT3 on cells [8] = biological target: T3, human FLRT3 on cells (human, UniProt Q9NZU0 29-649); experiment: flow cytometry on A549 cells (endogenous hFLRT3), normalised MFI, non-linear fit
T3 construct: also called hFLRT3
T3 sequence: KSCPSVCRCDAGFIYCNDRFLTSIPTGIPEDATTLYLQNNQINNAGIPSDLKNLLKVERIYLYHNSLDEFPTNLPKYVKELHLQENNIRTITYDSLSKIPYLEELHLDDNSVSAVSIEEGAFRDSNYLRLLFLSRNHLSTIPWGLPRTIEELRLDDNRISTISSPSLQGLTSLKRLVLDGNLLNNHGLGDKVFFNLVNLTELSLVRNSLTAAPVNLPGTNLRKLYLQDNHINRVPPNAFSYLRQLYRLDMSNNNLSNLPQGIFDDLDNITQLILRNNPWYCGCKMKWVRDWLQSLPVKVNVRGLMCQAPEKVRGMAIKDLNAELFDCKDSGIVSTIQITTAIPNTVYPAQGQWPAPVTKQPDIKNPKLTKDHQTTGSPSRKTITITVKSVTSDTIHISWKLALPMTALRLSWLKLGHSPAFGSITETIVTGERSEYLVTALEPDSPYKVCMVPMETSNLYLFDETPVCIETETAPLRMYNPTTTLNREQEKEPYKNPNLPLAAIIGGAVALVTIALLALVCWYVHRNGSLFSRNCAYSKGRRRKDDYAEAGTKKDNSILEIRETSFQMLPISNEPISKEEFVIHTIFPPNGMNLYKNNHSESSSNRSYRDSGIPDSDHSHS
Protocol: (§1) Increasing concentrations of FLRT3 antibodies bound to A549 cells that express endogenous hFLRT3 (FIG. 19). Binding curves for the top three antibodies were performed (FIG. 20A). MFI values of each group were normalized within that group- i.e. largest value 100% and smallest value 0% (FIG. 20A). EC50 values were calculated based on non-linear regression fit (FIG. 20B).

human FLRT3 on cells [9] = biological target: T3, human FLRT3 on cells; experiment: as above; remark: listed apart in the source
Protocol: as §1

human FLRT3 on cells [10] = biological target: T3, human FLRT3 on cells; experiment: flow cytometry on 293T cells transfected with human FLRT3, normalised MFI, non-linear fit
Excerpt: (§2) MFI values of each group were normalized within that group- i.e. largest value 100% and smallest value 0%.

FLRT3-Fc = biological target: T4, FLRT3-Fc (Homo sapiens (Human), UniProt Q9NZU0 29-528, biotin label in Example 8 (site not stated)); experiment: competition ELISA: FLRT3-Fc biotin binding to coated Unc5B-Fc with titrated antibody
T4 construct: also called FLRT3-Fc biotin; soluble FLRT3; not shown: Fc part
T4 sequence: T1 sequence
Protocol: The FLRT3 antibodies were tested for their ability to block FLRT3-Unc5B interaction in ELISA assays (FIG. 14A). The binding of FLRT3-Fc biotin to Unc5B-Fc was confirmed in the absence of blocking mAbs (FIG. 14B).

human FLRT3 on cells [11] = biological target: T3, human FLRT3 on cells; experiment: flow cytometry on 293T cells transfected with human FLRT3, normalised MFI, non-linear fit; Exp 1
Excerpt: as §2

human FLRT3 on cells [12] = biological target: T3, human FLRT3 on cells; experiment: flow cytometry on 293T cells transfected with human FLRT3, normalised MFI, non-linear fit; Exp 2
Excerpt: as §2

[13] = biological target: T1, FLRT3 (antigen of the binning assay of …); experiment: antibody binning matrix (Table 2); row '1X Kinetic' (no first antibody), column antibody taken as binder

binning response (no name or unit printed) [1]: 0.671
binning response (no name or unit printed) [2]: 0.771
binning response (no name or unit printed) [3]: 0.0014
binning response (no name or unit printed) [4]: 0.0294
binning response (no name or unit printed) [5]: 0.621
Kd [6]: 0.349 nM
koff [6]: 0.000138 s⁻¹
kon [6]: 436000 M⁻¹ s⁻¹
binning response (no name or unit printed) [7]: 1.07
EC50 (human FLRT3 on cells [8]): < 1 nM
EC50 (human FLRT3 on cells [9]): 0.29 nM
EC50 (human FLRT3 on cells [10]): < 1.5 nM
IC50 (read off the curve) (FLRT3-Fc): ~2 µg/mL
EC50 (human FLRT3 on cells [11]): 1.41 nM
EC50 (human FLRT3 on cells [12]): 1.35 nM
binning response (no name or unit printed) [13]: 1.73
B1: 14B7 (antibody, V domains shown)
VH: QVQLQQSGPELVKPGASVNISCKASGYAFGNSWMNWVKQRPGKGLEWIGWIYPGDGNANYNGKFKGKATLTADKSSSTAYMQLSSLTSEDSAVYFCARALYDYDGWFAYWGQGTLVTVSA
VL: DIQMNQSPSSLSASLGDTITIACRASQNIDIWLSWYQQKPGSIPKLLIYKASNLHTGVPSRFSGSGSGTDFTLTISSLQPEDIATYYCLQGQSFPFTFGSGTKLEIK
notes: Variable domains only; also called FLRT3 mAb 14B7; antibody 14B7
